{
  "source": "patent US20200140566A1",
  "about": "(CLEVELAND CLINIC FOUNDATION, published 2020)",
  "binders": {"B1": {"name": "Humanized IgG6 (from Fab6) (antibody, V domains shown)", "VH": "QVQLQESGPGLVKPSETLSLTCTVSGFSLSRYSVHWIRQPPGKGLEWIGLIWGGGFTDYNSALKSRVTISKDNSKNQVSLKLSSVTAADTAVYYCAREGVAYWGQGTLVTVSS", "VL": "DVVMTQSPLSLPVTLGQPASISCKSSQSLLNSDGRTYLNWFQQRPGQSPRRLIYLVSKLDSGVPDRFSGSGSGTDFTLKISRVEAEDVGVYYCWQGTHFPFTFGPGTKVDIKR", "notes": "Human IgG1 / kappa"}, "B2": {"name": "Humanized IgG4 (from Fab4) (antibody, V domains shown)", "VH": "B1 VH with L29I", "VL": "B1 VL", "notes": "VH4-hIgG1CH and VL-hIgKCL (human IgG1 / kappa; 'IgG4' is the clone number, not the isotype)"}, "B3": {"name": "Humanized IgG2 (from Fab2) (antibody, V domains shown)", "VH": "B1 VH with I37V, I48L, V67L", "VL": "B1 VL", "notes": "VH2-hIgG1CH and VL-hIgKCL (human IgG1 / kappa)"}, "B4": {"name": "Fab2 (Fab, V domains shown)", "VH": "B1 VH with I37V, I48L, V67L", "VL": "DVVMTQSPLSLPVTLGQPASISCKSSQSLLNSDGRTYLNWFQQRPGQSPRRLIYLVSKLDSGVPDRFSGSGSGTDFTLKISRVEAEDVGVYYCWQGTHFPFTFGPGTKVDIK", "notes": "Tested as Fab-SASA secreted into culture medium (pFASEBA vector); also called back-mutation 2; Fab2 clone from CDR grafting"}, "B5": {"name": "Fab5 (Fab, V domains shown)", "VH": "B1 VH with F27G, I37V, I48L, V67L, K71V, N73T, V78F", "VL": "B4 VL", "notes": "Tested as Fab-SASA secreted into culture medium; also called Fab5 R; back-mutation 5"}, "B6": {"name": "Fab4 (Fab, V domains shown)", "VH": "B1 VH with L29I", "VL": "B4 VL", "notes": "Tested as Fab-SASA secreted into culture medium; also called back-mutation 4"}, "B7": {"name": "Fab6 (Fab, V domains shown)", "VH": "B1 VH", "VL": "B4 VL", "notes": "Tested as Fab-SASA secreted into culture medium; also called back-mutation 6"}, "B8": {"name": "Fab7 (Fab, V domains shown)", "VH": "B1 VH with F27G, L29I, I37V, I48L, V67L, K71V, N73T, V78F", "VL": "B4 VL", "notes": "Tested as Fab-SASA secreted into culture medium; also called back-mutation 7"}},
  "note": "Substitutions are numbered along the chain they refer to. “And” between values parts separate entries of the source, which are not always exact repeats. Equal entries are not always repeated.",
  "data": [
    {"molecular_target": "T1, CD6 on Jurkat cells (human, UniProt P30203 18-668)", "T1 construct": "whole, on cells; the target is inferred from the antibodies' specificity", "T1 sequence (looked up)": "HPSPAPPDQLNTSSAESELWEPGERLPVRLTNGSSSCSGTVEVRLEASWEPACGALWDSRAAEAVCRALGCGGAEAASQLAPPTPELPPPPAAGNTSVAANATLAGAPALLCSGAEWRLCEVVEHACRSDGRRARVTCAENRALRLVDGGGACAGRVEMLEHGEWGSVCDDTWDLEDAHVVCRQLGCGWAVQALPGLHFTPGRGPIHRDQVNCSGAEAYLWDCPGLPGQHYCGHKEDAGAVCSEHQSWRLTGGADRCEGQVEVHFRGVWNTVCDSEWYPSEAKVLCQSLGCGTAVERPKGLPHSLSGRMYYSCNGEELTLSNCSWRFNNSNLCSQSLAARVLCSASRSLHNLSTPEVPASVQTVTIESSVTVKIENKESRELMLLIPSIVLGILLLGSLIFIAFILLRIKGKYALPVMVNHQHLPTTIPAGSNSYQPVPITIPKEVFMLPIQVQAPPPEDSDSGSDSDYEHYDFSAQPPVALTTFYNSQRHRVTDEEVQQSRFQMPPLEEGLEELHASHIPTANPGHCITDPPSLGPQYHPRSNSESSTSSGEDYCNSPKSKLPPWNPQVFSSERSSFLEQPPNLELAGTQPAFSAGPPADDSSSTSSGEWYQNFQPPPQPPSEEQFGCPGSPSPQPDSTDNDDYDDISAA", "assay": "flow cytometry on Jurkat cells, antibody at 0 pM (background)", "protocol": "(§1) Flow cytometric analysis was performed using the purified antibodies. Jurkat cells were grown to 70-80% confluence and harvested by centrifuge. About 4×10⁵ cells per well were washed with PBS twice. 200 μl of the culture supernatant was added to the cells and incubated at room temperature for 1 hour. After washing with PBS, antibody was added to the cells for the detection of bound humanized IgG. After 30 minutes incubation, the cells were washed twice with PBS and resuspended in PBS. Cells were analyzed for IgG binding by using FACS Calibur (BD Bioscience, San Jose, Calif.) and Flowjo software. The IC₅₀ was analyzed by GraphPad Prism.\n(§2) The FACS binding assay was also performed for validation of the Jurkat cell/humanized antibody interaction. Three humanized antibodies show almost equal Jurkat cell binding activity as parent antibody.", "values": [
      {"binder": "B1", "MFI": 5.45},
      {"binder": "B2", "MFI": 5.45},
      {"binder": "B3", "MFI": 5.45}
    ]},
    {"molecular_target": "T1, CD6 on Jurkat cells", "assay": "flow cytometry titration of direct binding on Jurkat cells (the filing calls the midpoint IC50), GraphPad Prism", "protocol": "as §1, §2", "units": {"EC50": "pM"}, "values": [
      {"binder": "B1", "EC50": 197},
      {"binder": "B2", "EC50": 185},
      {"binder": "B3", "EC50": 275}
    ]},
    {"molecular_target": "T1, CD6 on Jurkat cells", "assay": "flow cytometry on Jurkat cells, antibody at 400 pM", "protocol": "as §1, §2", "values": [
      {"binder": "B1", "MFI": 35.3},
      {"binder": "B2", "MFI": 37},
      {"binder": "B3", "MFI": 31}
    ]},
    {"molecular_target": "T2, rhCD6-Fc (human, UniProt P30203 25-398, limits assumed)", "T2 construct": "also called rhCD6-Fc chimera; antigen rhCD6-Fc; not shown: Fc part", "T2 sequence (looked up)": "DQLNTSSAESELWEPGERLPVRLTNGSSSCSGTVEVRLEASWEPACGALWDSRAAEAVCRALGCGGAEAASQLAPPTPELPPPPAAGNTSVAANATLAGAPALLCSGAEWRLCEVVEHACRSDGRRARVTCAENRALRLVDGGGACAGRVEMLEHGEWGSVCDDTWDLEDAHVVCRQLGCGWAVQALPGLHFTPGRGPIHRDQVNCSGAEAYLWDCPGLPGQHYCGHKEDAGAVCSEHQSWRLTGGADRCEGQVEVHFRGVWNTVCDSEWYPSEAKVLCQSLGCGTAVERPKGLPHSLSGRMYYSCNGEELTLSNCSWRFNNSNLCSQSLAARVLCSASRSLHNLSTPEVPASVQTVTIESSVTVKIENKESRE", "assay": "SPR (BIAcore T200, 25 C), rhCD6-Fc immobilised on CM5, IgG injected 0.11-27 nM, 1:1 fit; column head misprinted 'Kd (1/Ms)'", "protocol": "(§3) IgG antibodies were injected through flow cells at a flow rate of 30 μl/min with the concentration ranging from 0.11-27 nM (three-fold serial dilution). Association time was 700 s followed by 3600 s dissociation. At the end of each cycle, sensor surface was regenerated with 10 mM Glycine-HCl, pH 2.0 (100 μl/min, 12 s for 3 times). Responses of reference flow cell and buffer-only injection were double-subtracted from rhCD6-Fcflow cell during each antigen injection cycle. The data of dissociation (kd) and association (ka) rate constants were obtained by fitting binding data to 1:1 binding model using Biacore T200 evaluation software. The apparent equilibrium dissociation constants (KD) were calculated from the ratio of kd over ka.\n(§4) Affinity analysis of antigen-antibody interaction. Binding data of each antibody was processed and fitted to 1:1 binding model using Biacore T200 evaluation software. All experiment data could be perfectly fitted to the model (FIG. 14).", "units": {"koff": "s⁻¹", "kon": "M⁻¹ s⁻¹"}, "values": [
      {"binder": "B1", "koff": "2.1e-05", "kon": 650000},
      {"binder": "B2", "koff": "1.3e-05", "kon": 350000},
      {"binder": "B3", "koff": "1.3e-05", "kon": 320000}
    ]},
    {"molecular_target": "T1, CD6 on Jurkat cells", "assay": "flow cytometry on Jurkat cells, antibody at 3.2 pM", "protocol": "as §1, §2", "values": [
      {"binder": "B1", "MFI": 6.68},
      {"binder": "B2", "MFI": 6.45},
      {"binder": "B3", "MFI": 6.18}
    ]},
    {"molecular_target": "T1, CD6 on Jurkat cells", "assay": "flow cytometry on Jurkat cells, antibody at 80 pM", "protocol": "as §1, §2", "values": [
      {"binder": "B1", "MFI": 14.8},
      {"binder": "B2", "MFI": 15},
      {"binder": "B3", "MFI": 10.9}
    ]},
    {"molecular_target": "T2, rhCD6-Fc", "assay": "SPR (BIAcore T200, 25 C), rhCD6-Fc immobilised on CM5, IgG injected, apparent KD = kd/ka", "protocol": "as §3, §4", "units": {"Kd": "pM"}, "values": [
      {"binder": "B1", "Kd": 32},
      {"binder": "B2", "Kd": 38},
      {"binder": "B3", "Kd": 42}
    ]},
    {"molecular_target": "T1, CD6 on Jurkat cells", "assay": "flow cytometry on Jurkat cells, antibody at 16 pM", "protocol": "as §1, §2", "values": [
      {"binder": "B1", "MFI": 7.9},
      {"binder": "B2", "MFI": 7.65},
      {"binder": "B3", "MFI": 6.8}
    ]},
    {"molecular_target": "T2, rhCD6-Fc", "assay": "SPR (BIAcore T200), Fab-SASA from culture medium captured on immobilised BSA, rhCD6-Fc injected, 1:1 fit of off-rate", "protocol": "BSA was immobilized onto the sensor chip using amine coupling method. The selected Fab-SASA clones secreted to the culture medium were injected and captured by BSA via SASA (capture phase). After equilibration, antigen rhCD6-Fc was injected for 240 seconds (association phase) followed by the injection of running buffer for 720 seconds (dissociation phase). The surface was regenerated before the injection of another three Fab-SASA clones. The process was repeated until all antibodies were analyzed. Responses of reference flow cell were subtracted from those of Fab-SASA flow cells during each cycle. The binding curves of Fab-SASA clones were aligned at the start of association and normalized at 20 seconds after the stop of antigen injection using the BIAcore T200 evaluation software in order to display a more visualized comparison of antibodies. The off-rates of Fab-SASA clones were obtained from fitting the experimental data locally to 1:1 binding model. The antibodies were ranked by their dissociation rate constants Single cycle kinetics measurement was performed to verify the affinity ranking result. The selected Fab-SASA clones secreted to the culture medium were injected and captured by BSA via SASA (capture phase). After equilibration, a series of concentrations of antigen rhCD6-Fc (1, 3, 9, 27 and 81 nM) were injected for 500 seconds (association phase) followed by the injection of running buffer for 3000 seconds (dissociation phase). The surface was regenerated before another injection of Fab-SASA clones. Responses of reference flow cell and buffer-only injection were double-subtracted from those of Fab-SASA flow cells during each antigen injection cycle. The binding data were fitted to 1:1 binding model using the BIAcore T200 evaluation software.\nFive back-mutation clones were constructed based on sequence of Fab2 and homology modeling. Each of DNA sequence encoding the five Fab fragments was inserted into pFASEBA vector for screening of the lead antibodies. The five clones along with Fab2 were screened against rhCD6-Fc for binding test and subsequent off-rate analysis by the BIAcore T200. Three clones were selected for IgG production and characterization due to the low dissociation rate using the BIAcore T200 evaluation software (Table 3).", "values": [
      {"binder": "B4", "koff": "2.1e-05 s⁻¹"},
      {"binder": "B5", "koff": "0.00053 s⁻¹ and 0.00056 s⁻¹"},
      {"binder": "B6", "koff": "1.9e-05 s⁻¹"},
      {"binder": "B7", "koff": "3.1e-05 s⁻¹"},
      {"binder": "B8", "koff": "0.00089 s⁻¹"}
    ]},
    {"molecular_target": "T1, CD6 on Jurkat cells", "assay": "flow cytometry on Jurkat cells, antibody at 10000 pM", "protocol": "as §1, §2", "values": [
      {"binder": "B1", "MFI": 45.2},
      {"binder": "B2", "MFI": 46.7},
      {"binder": "B3", "MFI": 42.7}
    ]},
    {"molecular_target": "T1, CD6 on Jurkat cells", "assay": "flow cytometry on Jurkat cells, antibody at 2000 pM", "protocol": "as §1, §2", "values": [
      {"binder": "B1", "MFI": 44.1},
      {"binder": "B2", "MFI": 44.4},
      {"binder": "B3", "MFI": 45}
    ]}
  ]
}
